Values of other authors in publication PMC10653114.

Tests used:
Lys51 = Lys51 (UniProt position 291, LKSFHKPVTSY); test: NMR (per the title of cited ref 99); conditions: 298 K; Conc. 0.10 (unit not given; K+/Cl–)
Lys25 = Lys25 (UniProt position 265, LEVLAKAYSVQ); test: NMR (per the title of cited ref 99); conditions: 298 K; Conc. 0.10 (unit not given; K+/Cl–)
Lys47 = Lys47 (UniProt position 287, AINALKSFHKP); test: NMR (per the title of cited ref 99); conditions: 298 K; Conc. 0.10 (unit not given; K+/Cl–)
Lys72 = Lys72 (UniProt position 312, KRMAEKIIEIL); test: NMR (per the title of cited ref 99); conditions: 298 K; Conc. 0.10 (unit not given; K+/Cl–)
Lys41 = Lys41 (UniProt position 281, ALGYAKAINAL); test: NMR (per the title of cited ref 99); conditions: 298 K; Conc. 0.10 (unit not given; K+/Cl–)
Lys84 = Lys84 (UniProt position 324, SGHLRKLDHIS); test: NMR (per the title of cited ref 99); conditions: 298 K; Conc. 0.10 (unit not given; K+/Cl–)
Lys19 = Lys19 (UniProt position 259, LHITEKLEVLA); test: NMR (per the title of cited ref 99); conditions: 298 K; Conc. 0.10 (unit not given; K+/Cl–)
Lys67 = Lys67 (UniProt position 307, IPGIGKRMAEK); test: NMR (per the title of cited ref 99); conditions: 298 K; Conc. 0.10 (unit not given; K+/Cl–)
Lys33 = Lys33 (UniProt position 273, SVQGDKWRALG); test: NMR (per the title of cited ref 99); conditions: 298 K; Conc. 0.10 (unit not given; K+/Cl–)
Lys8 = Lys8 (UniProt position 248, QPSSQKATNHN); test: NMR (per the title of cited ref 99); conditions: 298 K; Conc. 0.10 (unit not given; K+/Cl–)
Glu13 = Glu13 (UniProt position 13, KTAFQEALDAA); conditions: 298 K; Conc. 0.00 (unit not given; Na+/Cl–)
Glu56 = Glu56 (UniProt position 56, NVIFLEVDVDD); conditions: 298 K; Conc. 0.00 (unit not given; Na+/Cl–)
Glu70 = Glu70 (UniProt position 70, VASECEVKCMP); conditions: 298 K; Conc. 0.00 (unit not given; Na+/Cl–)
Glu103 = Glu103 (UniProt position 103, EATINELV---); conditions: 298 K; Conc. 0.00 (unit not given; Na+/Cl–)
Glu6 [1] = molecular target: Glu6 (UniProt position 6, MVKQIESKTAF); conditions: 298 K; Conc. 0.00 (unit not given; Na+/Cl–)
Asp64 = Asp64 (UniProt position 64, VDDCQDVASEC); conditions: 298 K; Conc. 0.00 (unit not given; Na+/Cl–)
Glu95 = Glu95 (UniProt position 95, SGANKEKLEAT); conditions: 298 K; Conc. 0.00 (unit not given; Na+/Cl–)
Asp16 = Asp16 (UniProt position 16, FQEALDAAGDK); conditions: 298 K; Conc. 0.00 (unit not given; Na+/Cl–)
Asp26 = Asp26 (UniProt position 26, KLVVVDFSATW); conditions: 298 K; Conc. 0.00 (unit not given; Na+/Cl–)
Glu88 = Glu88 (UniProt position 88, GQKVGEFSGAN); conditions: 298 K; Conc. 0.00 (unit not given; Na+/Cl–)
Glu68 = Glu68 (UniProt position 68, QDVASECEVKC); conditions: 298 K; Conc. 0.00 (unit not given; Na+/Cl–)
Glu47 = Glu47 (UniProt position 47, FHSLSEKYSNV); conditions: 298 K; Conc. 0.00 (unit not given; Na+/Cl–)
Asp20 = Asp20 (UniProt position 20, LDAAGDKLVVV); conditions: 298 K; Conc. 0.00 (unit not given; Na+/Cl–)
Glu98 = Glu98 (UniProt position 98, NKEKLEATINE); conditions: 298 K; Conc. 0.00 (unit not given; Na+/Cl–)
Glu32 = Glu32 (UniProt position 32, RYRGREKTFSA); test: NMR (per the title of cited ref 95); conditions: 300 K; Conc. 0.10 (unit not given; Na+/Cl–)
Asp94 = Asp94 (UniProt position 94, GWKTADKKPVK); test: NMR (per the title of cited ref 95); conditions: 300 K; Conc. 0.10 (unit not given; Na+/Cl–)
Glu57 = Glu57 (UniProt position 57, AIVALEALKEH); test: NMR (per the title of cited ref 95); conditions: 300 K; Conc. 0.10 (unit not given; Na+/Cl–)
Glu147 = Glu147 (UniProt position 147, MNPTLEDTGYQ); test: NMR (per the title of cited ref 95); conditions: 300 K; Conc. 0.10 (unit not given; Na+/Cl–)
Glu48 = Glu48 (UniProt position 48, TNNRMELMAAI); test: NMR (per the title of cited ref 95); conditions: 300 K; Conc. 0.10 (unit not given; Na+/Cl–)
Glu119 = Glu119 (UniProt position 119, HQIKWEWVKGH); test: NMR (per the title of cited ref 95); conditions: 300 K; Conc. 0.10 (unit not given; Na+/Cl–)
Asp70 = Asp70 (UniProt position 70, VILSTDSQYVR); test: NMR (per the title of cited ref 95); conditions: 300 K; Conc. 0.10 (unit not given; Na+/Cl–)
Asp134 = Asp134 (UniProt position 134, ENERCDELARA); test: NMR (per the title of cited ref 95); conditions: 300 K; Conc. 0.10 (unit not given; Na+/Cl–)
Glu129 = Glu129 (UniProt position 129, HAGHPENERCD); test: NMR (per the title of cited ref 95); conditions: 300 K; Conc. 0.10 (unit not given; Na+/Cl–)
Glu64 = Glu64 (UniProt position 64, LKEHCEVILST); test: NMR (per the title of cited ref 95); conditions: 300 K; Conc. 0.10 (unit not given; Na+/Cl–)
Glu135 = Glu135 (UniProt position 135, NERCDELARAA); test: NMR (per the title of cited ref 95); conditions: 300 K; Conc. 0.10 (unit not given; Na+/Cl–)
Asp10 = Asp10 (UniProt position 10, VEIFTDGSCLG); test: NMR (per the title of cited ref 95); conditions: 300 K; Conc. 0.10 (unit not given; Na+/Cl–)
Glu6 [2] = molecular target: Glu6 (UniProt position 6, MLKQVEIFTDG); test: NMR (per the title of cited ref 95); conditions: 300 K; Conc. 0.10 (unit not given; Na+/Cl–)
Glu61 = Glu61 (UniProt position 61, LEALKEHCEVI); test: NMR (per the title of cited ref 95); conditions: 300 K; Conc. 0.10 (unit not given; Na+/Cl–)
Glu154 = Glu154 (UniProt position 154, TGYQVEV----); test: NMR (per the title of cited ref 95); conditions: 300 K; Conc. 0.10 (unit not given; Na+/Cl–)
Glu131 = Glu131 (UniProt position 131, GHPENERCDEL); test: NMR (per the title of cited ref 95); conditions: 300 K; Conc. 0.10 (unit not given; Na+/Cl–)
Asp108 = Asp108 (UniProt position 108, LWQRLDAALGQ); test: NMR (per the title of cited ref 95); conditions: 300 K; Conc. 0.10 (unit not given; Na+/Cl–)
Asp61 [3] = molecular target: Asp61 (UniProt position 435, STVTQDGSAVH); conditions: 298 K; Conc. 0.10 (unit not given; K+/Cl–)
Lys21 = Lys21 (UniProt position 22, FSLFDKDGDGT); conditions: 298 K; Conc. 0.10 (unit not given; K+/Cl–); apo (Ca2+-free) calmodulin, per the Supplemental Methods, which build an apo model
Lys30 = Lys30 (UniProt position 31, GTITTKELGTV); conditions: 298 K; Conc. 0.10 (unit not given; K+/Cl–); apo (Ca2+-free) calmodulin, per the Supplemental Methods, which build an apo model
Lys75 = Lys75 (UniProt position 76, TMMARKMKDTD); conditions: 298 K; Conc. 0.10 (unit not given; K+/Cl–); apo (Ca2+-free) calmodulin, per the Supplemental Methods, which build an apo model
Lys77 = Lys77 (UniProt position 78, MARKMKDTDSE); conditions: 298 K; Conc. 0.10 (unit not given; K+/Cl–); apo (Ca2+-free) calmodulin, per the Supplemental Methods, which build an apo model
Lys94 = Lys94 (UniProt position 95, FRVFDKDGNGY); conditions: 298 K; Conc. 0.10 (unit not given; K+/Cl–); apo (Ca2+-free) calmodulin, per the Supplemental Methods, which build an apo model
Lys13 [4] = molecular target: Lys13 (UniProt position 14, QIAEFKEAFSL); conditions: 298 K; Conc. 0.10 (unit not given; K+/Cl–); apo (Ca2+-free) calmodulin, per the Supplemental Methods, which build an apo model
Lys34 = Lys34 (UniProt position 163, KTYGNKCNFCN); conditions: 298 K; Conc. 0.015 (unit not given; K+/Cl–)
Lys29 = Lys29 (UniProt position 158, CGSDNKTYGNK); conditions: 298 K; Conc. 0.015 (unit not given; K+/Cl–)
Asp27 = Asp27 (UniProt position 156, PLCGSDNKTYG); conditions: 298 K; Conc. 0.015 (unit not given; K+/Cl–)
Lys55 = Lys55 (UniProt position 184, LSHFGKC----); conditions: 298 K; Conc. 0.015 (unit not given; K+/Cl–)
Asp7 = Asp7 (UniProt position 136, AAVSVDCSEYP); conditions: 298 K; Conc. 0.015 (unit not given; K+/Cl–)
Lys13 [5] = molecular target: Lys13 (UniProt position 142, CSEYPKPACTL); conditions: 298 K; Conc. 0.015 (unit not given; K+/Cl–)
Asp61 [6] = molecular target: Asp61 (UniProt position 435, STVTQDGSAVT); conditions: 298 K; Conc. 0.10 (unit not given; K+/Cl–)

Question: Which results are given for “DNA polymerase lambda, lyase (8 kDa) domain (Homo sapiens)”?
Answer: pKa (Lys51): 10.26 ± 0.14; pKa (Lys25): 10.23 ± 0.14; pKa (Lys47): 10.65 ± 0.14; pKa (Lys72): 9.58 ± 0.14; pKa (Lys41): 10.01 ± 0.14; pKa (Lys84): 10.27 ± 0.14; pKa (Lys19): 10.07 ± 0.14; pKa (Lys67): 10.16 ± 0.14; pKa (Lys33): 10.07 ± 0.14; pKa (Lys8): 10.27 ± 0.14

Question: Which results are given for “Thioredoxin (human, reduced) (Homo sapiens)”?
Answer: pKa (Glu13): 4.4 ± 0.07; pKa (Glu56): 3.1 ± 0.10; pKa (Glu70): 4.6 ± 0.08; pKa (Glu103): 4.4 ± 0.07; pKa (Glu6 [1]): 4.8 ± 0.08; pKa (Asp64): 3.2 ± 0.06; pKa (Glu95): 4.1 ± 0.02; pKa (Asp16): 4.1 ± 0.10; pKa (Asp26): 9.9 ± 0.10; pKa (Glu88): 3.7 ± 0.08; pKa (Glu68): 4.9 ± 0.07; pKa (Glu47): 4.1 ± 0.10; pKa (Asp20): 3.8 ± 0.05; pKa (Glu98): 3.9 ± 0.02

Question: Which pKa (Glu32) does the source give for Ribonuclease HI (Escherichia coli) here?
Answer: 3.6

Question: What about the pKa (Asp94) of the same substance?
Answer: 3.2

Question: What about the pKa (Glu57) of the same substance?
Answer: 3.2

Question: What about the pKa (Glu147) of the same substance?
Answer: 4.2

Question: What about the pKa (Glu48) of the same substance?
Answer: 4.4

Question: What about the pKa (Glu119) of the same substance?
Answer: 4.1

Question: And the pKa (Asp70)?
Answer: 2.6

Question: And the pKa (Asp134)?
Answer: 4.1

Question: What about the pKa (Glu129) of the same substance?
Answer: 3.6

Question: And the pKa (Glu64)?
Answer: 4.4

Question: What about the pKa (Glu135) of the same substance?
Answer: 4.3

Question: What about the pKa (Asp10) of the same substance?
Answer: 6.1

Question: What about the pKa (Glu6 [2]) of the same substance?
Answer: 4.5

Question: What about the pKa (Glu61) of the same substance?
Answer: 3.9

Question: What about the pKa (Glu154) of the same substance?
Answer: 4.4

Question: What about the pKa (Glu131) of the same substance?
Answer: 4.3

Question: And the pKa (Asp108)?
Answer: 3.2

Question: With “Highly charge-depleted protein (PDB 6QFS), S61D/T66H variant (Cellulomonas fimi (parent domain; not stated in the article); S61D;T66H (on the 6QFS charge-depleted background; background substitutions not stated))” as the substance, how does the pKa (Asp61 [3]) read?
Answer: 4.10 ± 0.02

Question: With “Calmodulin (apo) (Homo sapiens (as modelled in the article; source species of the measured sample not stated))” as the substance, how does the pKa (Lys21) read?
Answer: 10.55 ± 0.10

Question: And the pKa (Lys30)?
Answer: 10.55 ± 0.10

Question: And the pKa (Lys75)?
Answer: 9.87 ± 0.10

Question: What about the pKa (Lys77) of the same substance?
Answer: 10.55 ± 0.10

Question: What about the pKa (Lys94) of the same substance?
Answer: 10.55 ± 0.10

Question: And the pKa (Lys13 [4])?
Answer: 10.23 ± 0.10

Question: With “Turkey ovomucoid third domain (OMTKY3) (Meleagris gallopavo)” as the substance, how does the pKa (Lys34) read?
Answer: 10.13 ± 0.05

Question: What about the pKa (Lys29) of the same substance?
Answer: 11.12 ± 0.02

Question: And the pKa (Asp27)?
Answer: 2.56 ± 0.03

Question: And the pKa (Lys55)?
Answer: 11.10 ± 0.06

Question: What about the pKa (Asp7) of the same substance?
Answer: 2.95 ± 0.03

Question: And the pKa (Lys13 [5])?
Answer: 9.86 ± 0.03

Question: With “Highly charge-depleted protein (PDB 6QFS), S61D variant (Cellulomonas fimi (parent domain; not stated in the article); S61D (on the 6QFS charge-depleted background; background substitutions not stated))” as the substance, how does the pKa (Asp61 [6]) read?
Answer: 4.15 ± 0.01
